Tests used:
[1] = biological target: T1, canine PD-1 protein amino acids 25-168 with His tag (canine, UniProt A0A090BAM7 25-168); assay: kinetics, PD-1 His 1.1 nM
T1 construct: Expressed in Expi293F cells; used as immunogen and as antigen in ELISA and Octet; also called PD-1 His

[2] = biological target: T1, canine PD-1 protein amino acids 25-168 …; assay: kinetics, PD-1 His 4.0 nM
[3] = biological target: T1, canine PD-1 protein amino acids 25-168 …; assay: kinetics, PD-1 His 12.4 nM
[4] = biological target: T1, canine PD-1 protein amino acids 25-168 …; assay: kinetics, PD-1 His 37.3 nM
[5] = biological target: T1, canine PD-1 protein amino acids 25-168 …; assay: kinetics, PD-1 His 111.3 nM
[6] = biological target: T1, canine PD-1 protein amino acids 25-168 …; assay: kinetics, PD-1 His 333.3 nM
[7] = biological target: T1, canine PD-1 protein amino acids 25-168 …; assay: kinetics, PD-1 His 1000.0 nM
[8] = biological target: T1, canine PD-1 protein amino acids 25-168 …; assay: kinetics, global fit over PD-1 His 1.1-1000 nM
[9] = biological target: T1, canine PD-1 protein amino acids 25-168 …; assay: kinetics, global fit over the PD-1 His series 1.1-1000.0 nM
[10] = biological target: T2, PD1 on the surface of T cells (canine PBMC stimulated with ConA) (canine, UniProt A0A090BAM7 25-288); assay: flow cytometry, ConA-stimulated canine PBMC, CD3-FITC and PE-labeled anti-canine IgG
T2 construct: also called canine PD-1
Protocol: (§1) The cells were stimulated by 0.5 μg/mL ConA for 3 days, and collected. PBMC was incubated with canine-anti-CD3-FITC and caninized monoclonal antibodies C1, C3 and C11 respectively. Then the cells were incubated again with PE-labeled canine-IgG antibody. […] Moreover, the results also indicate that the caninized monoclonal antibodies C1, C3 and C11 have potential blocking effect on the PD1/PD-L1 signaling pathway, and thus have protective effect on the function of T cells (see FIG. 14).

[11] = biological target: T2, PD1 on the surface of T cells (canine …); assay: flow cytometry on ConA-stimulated canine PBMC, stained with anti-CD3-FITC and the caninized antibody, detected with PE-labeled anti-canine IgG; quadrant plot FITC against PE; no unstained or isotype control shown
Protocol: as §1

T1 sequence (A0A090BAM7 entry or part of it limits assumed): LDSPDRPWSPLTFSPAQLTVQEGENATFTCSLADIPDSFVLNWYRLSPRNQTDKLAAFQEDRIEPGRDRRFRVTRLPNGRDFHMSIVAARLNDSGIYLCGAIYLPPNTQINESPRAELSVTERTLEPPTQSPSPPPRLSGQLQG
T2 sequence (A0A090BAM7 entry or part of it limits assumed): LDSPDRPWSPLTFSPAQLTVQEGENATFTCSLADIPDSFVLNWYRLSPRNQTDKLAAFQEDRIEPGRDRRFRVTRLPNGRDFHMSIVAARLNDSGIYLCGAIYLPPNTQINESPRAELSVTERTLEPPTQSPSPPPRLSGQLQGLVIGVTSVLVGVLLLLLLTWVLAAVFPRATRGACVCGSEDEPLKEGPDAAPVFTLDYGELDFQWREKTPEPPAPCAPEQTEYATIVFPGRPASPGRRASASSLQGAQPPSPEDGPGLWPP

Response (nm) [1]: -0.003 nm
Response (nm) [2]: 0.004 nm
Kd [3]: < 1 pM
Response (nm) [3]: 0.008 nm
koff [3]: < 1e-07 s⁻¹
kon [3]: 50100 M⁻¹ s⁻¹
Kd [4]: < 1 pM
Response (nm) [4]: 0.015 nm
koff [4]: < 1e-07 s⁻¹
kon [4]: 67600 M⁻¹ s⁻¹
Kd [5]: < 1 pM
Response (nm) [5]: 0.025 nm
koff [5]: < 1e-07 s⁻¹
kon [5]: 23800 M⁻¹ s⁻¹
Kd [6]: < 1 pM
Response (nm) [6]: 0.012 nm
koff [6]: < 1e-07 s⁻¹
kon [6]: 947 M⁻¹ s⁻¹
Kd [7]: < 1 pM
Response (nm) [7]: 0.009 nm
koff [7]: < 1e-07 s⁻¹
kon [7]: 1470 M⁻¹ s⁻¹
Kd [8]: < 1 pM
koff [8]: < 1e-07 s⁻¹
kon [8]: 1190 M⁻¹ s⁻¹
Kd [9]: < 1 pM
koff [9]: < 1e-07 s⁻¹
kon [9]: 1190 M⁻¹ s⁻¹
PD1 positive cells in T cells [10]: 96.7%
% of cells in quadrant Q2 (Comp-FITC-A positive, Comp-PE-A positive) [11]: 62.6%
B1: caninized monoclonal antibody C11 (antibody, V domains shown)
VH: EVQLQQSGAEVVKPGASVKLSCTASGFNIKDTYMHWVKQRPEQGLEWIGRIDPAIGNPKYDPKFQGRATITADTSSNTAYLQLSSLTSEDTAVYYCASGFYAMDCWGQGTSVTVSS
VL: QIVLTQSPAIMSASPGEKVTMTCSASSSITYMFWYQQKPGSSPRLWIYDTSNLVSGVPARFSGSKSGTSYSLTITSMEAEDAATYYCQQYSGYPSTFGSGTKLEIKR
notes: Variable domains as for M11; also called C11(37.40); 37.40
